Source: patent US20240190962A1 (IMMUNOWAKE, published 2024)

T1: human IL-2 receptor (IL-2Rα, IL-2Rβ, IL-2Rγ) (human, UniProt P01589 22-272; P14784 27-551; P31785 23-369)
T1 sequence (looked up) 1: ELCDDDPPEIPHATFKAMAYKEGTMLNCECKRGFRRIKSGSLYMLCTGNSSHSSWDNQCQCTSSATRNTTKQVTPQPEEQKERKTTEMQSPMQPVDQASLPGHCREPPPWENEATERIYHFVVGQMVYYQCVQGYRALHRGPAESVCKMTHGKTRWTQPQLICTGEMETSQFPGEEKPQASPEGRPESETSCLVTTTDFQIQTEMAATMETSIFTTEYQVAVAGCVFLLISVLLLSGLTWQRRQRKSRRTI
T1 sequence (looked up) 2: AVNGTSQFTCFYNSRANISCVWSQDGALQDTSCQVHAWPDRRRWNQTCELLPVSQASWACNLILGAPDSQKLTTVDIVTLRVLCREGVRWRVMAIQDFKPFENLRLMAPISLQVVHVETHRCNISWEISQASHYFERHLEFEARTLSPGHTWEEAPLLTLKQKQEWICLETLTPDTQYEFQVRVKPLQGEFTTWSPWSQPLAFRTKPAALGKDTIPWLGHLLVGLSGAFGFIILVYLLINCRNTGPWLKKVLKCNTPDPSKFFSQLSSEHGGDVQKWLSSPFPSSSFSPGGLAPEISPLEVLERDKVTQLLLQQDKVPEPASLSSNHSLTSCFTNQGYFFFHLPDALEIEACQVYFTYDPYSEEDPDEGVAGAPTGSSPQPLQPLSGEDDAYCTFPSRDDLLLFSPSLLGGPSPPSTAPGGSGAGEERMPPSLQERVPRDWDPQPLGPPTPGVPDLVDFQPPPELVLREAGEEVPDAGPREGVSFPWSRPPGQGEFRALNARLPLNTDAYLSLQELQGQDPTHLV
T1 sequence (looked up) 3: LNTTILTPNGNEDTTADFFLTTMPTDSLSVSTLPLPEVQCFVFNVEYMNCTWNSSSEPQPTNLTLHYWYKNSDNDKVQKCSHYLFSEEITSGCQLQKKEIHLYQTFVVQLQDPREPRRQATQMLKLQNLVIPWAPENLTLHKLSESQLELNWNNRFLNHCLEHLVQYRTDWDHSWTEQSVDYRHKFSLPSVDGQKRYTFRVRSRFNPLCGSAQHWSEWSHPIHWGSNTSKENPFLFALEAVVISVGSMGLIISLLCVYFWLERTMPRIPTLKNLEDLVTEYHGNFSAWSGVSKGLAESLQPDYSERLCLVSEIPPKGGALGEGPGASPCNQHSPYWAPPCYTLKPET


Molecular target: T1, human IL-2 receptor (IL-2Rα, IL-2Rβ, …)
Test: cell-based or functional assay

| Binder | IL-2 biological activity, HEK-IL-2 [%] | IL-2 biological activity, HEK-IL-2-PD-1 [%] |
| --- | --- | --- |
| IL-2(L18R/Q22E/R38D/K43E/E61R)/PD-L1(mut2)-Fc (Fc fusion) chain 1: FTVTVPKDLYVVEYGSNMTIECKFPVEKQLDLAALQVYWMMEDKNIIQFVHGEEDLKVQHSSYRQRARLLKDQLSLGNAALQITDVKLQDAGVYTCLIAYKGADYKRITVKVNAPYNKINQRILVVDPVTSEHELTCQAEGYPKAEVIWTSSDHQVLSGKTTTTNSKREEKLFNVTSTLRINTTTNEIFYCTFRRLDPEENHTAELVIPELPLAHPPNERGGGGSGGGDKTHTCPPCPAPEDEGGPSVFLFPPKPKDTLMISRTPEVTCVVVDVSHEDPEVKFNWYVDGVEVHNAKTKPREEQYNSTYRVVSVLTVLHQDWLNGKEYKCKVSNKALPAPIEKTISKAKGQPREPQVYVYPPSREEMTKNQVSLTCLVKGFYPSDIAVEWESNGQPENNYKTTPPVLDEDGSFALVSKLTVDKSRWQQGNVFSCSVMHEALHNHYTQKSLSLSPGK chain 2: FTVTVPKDLYVVEYGSNMTIECKFPVEKQLDLAALQVYWMMEDKNIIQFVHGEEDLKVQHSSYRQRARLLKDQLSLGNAALQITDVKLQDAGVYTCLIAYKGADYKRITVKVNAPYNKINQRILVVDPVTSEHELTCQAEGYPKAEVIWTSSDHQVLSGKTTTTNSKREEKLFNVTSTLRINTTTNEIFYCTFRRLDPEENHTAELVIPELPLAHPPNERGGGSGAPTSSSTKKTQLQLEHLRLDLEMILNGINNYKNPKLTDMLTFEFYMPKKATELKHLQCLERELKPLEEVLNLAQSKNFHLRPRDLISNINVIVLELKGSETTFMCEYADETATIVEFLNRWITFCQSIISTLTGGGGSGGGDKTHTCPPCPAPEKKGGPSVFLFPPKPKDTLMISRTPEVTCVVVDVSHEDPEVKFNWYVDGVEVHNAKTKPREEQYNSTYRVVSVLTVLHQDWLNGKEYKCKVSNKALPAPIEKTISKAKGQPREPQVYVLPPSREEMTKNQVSLLCLVKGFYPSDIAVEWESNGQPENRYMTWPPVLDSDGSFFLYSKLTVDKSRWQQGNVFSCSVMHEALHNHYTQKSLSLSPGK | 4 | 35 |
| IL-2(R38D/K43E/E61R)/PD-L1(mut2)-Fc (Fc fusion) chain 1: FTVTVPKDLYVVEYGSNMTIECKFPVEKQLDLAALQVYWMMEDKNIIQFVHGEEDLKVQHSSYRQRARLLKDQLSLGNAALQITDVKLQDAGVYTCLIAYKGADYKRITVKVNAPYNKINQRILVVDPVTSEHELTCQAEGYPKAEVIWTSSDHQVLSGKTTTTNSKREEKLFNVTSTLRINTTTNEIFYCTFRRLDPEENHTAELVIPELPLAHPPNERGGGGSGGGDKTHTCPPCPAPEDEGGPSVFLFPPKPKDTLMISRTPEVTCVVVDVSHEDPEVKFNWYVDGVEVHNAKTKPREEQYNSTYRVVSVLTVLHQDWLNGKEYKCKVSNKALPAPIEKTISKAKGQPREPQVYVYPPSREEMTKNQVSLTCLVKGFYPSDIAVEWESNGQPENNYKTTPPVLDEDGSFALVSKLTVDKSRWQQGNVFSCSVMHEALHNHYTQKSLSLSPGK chain 2: FTVTVPKDLYVVEYGSNMTIECKFPVEKQLDLAALQVYWMMEDKNIIQFVHGEEDLKVQHSSYRQRARLLKDQLSLGNAALQITDVKLQDAGVYTCLIAYKGADYKRITVKVNAPYNKINQRILVVDPVTSEHELTCQAEGYPKAEVIWTSSDHQVLSGKTTTTNSKREEKLFNVTSTLRINTTTNEIFYCTFRRLDPEENHTAELVIPELPLAHPPNERGGGSGAPTSSSTKKTQLQLEHLLLDLQMILNGINNYKNPKLTDMLTFEFYMPKKATELKHLQCLERELKPLEEVLNLAQSKNFHLRPRDLISNINVIVLELKGSETTFMCEYADETATIVEFLNRWITFCQSIISTLTGGGGSGGGDKTHTCPPCPAPEKKGGPSVFLFPPKPKDTLMISRTPEVTCVVVDVSHEDPEVKFNWYVDGVEVHNAKTKPREEQYNSTYRVVSVLTVLHQDWLNGKEYKCKVSNKALPAPIEKTISKAKGQPREPQVYVLPPSREEMTKNQVSLLCLVKGFYPSDIAVEWESNGQPENRYMTWPPVLDSDGSFFLYSKLTVDKSRWQQGNVFSCSVMHEALHNHYTQKSLSLSPGK | 16 | 76 |

Continued, values first:

| IL-2 biological activity, HEK-IL-2 [%] | IL-2 biological activity, HEK-IL-2-PD-1 [%] | Binder |
| --- | --- | --- |
| < 0.1 | < 0.1 | PD-L1(mut2)-Fc (Fc fusion) chain 1: FTVTVPKDLYVVEYGSNMTIECKFPVEKQLDLAALQVYWMMEDKNIIQFVHGEEDLKVQHSSYRQRARLLKDQLSLGNAALQITDVKLQDAGVYTCLIAYKGADYKRITVKVNAPYNKINQRILVVDPVTSEHELTCQAEGYPKAEVIWTSSDHQVLSGKTTTTNSKREEKLFNVTSTLRINTTTNEIFYCTFRRLDPEENHTAELVIPELPLAHPPNERGGGGSGGGDKTHTCPPCPAPEDEGGPSVFLFPPKPKDTLMISRTPEVTCVVVDVSHEDPEVKFNWYVDGVEVHNAKTKPREEQYNSTYRVVSVLTVLHQDWLNGKEYKCKVSNKALPAPIEKTISKAKGQPREPQVYVYPPSREEMTKNQVSLTCLVKGFYPSDIAVEWESNGQPENNYKTTPPVLDEDGSFALVSKLTVDKSRWQQGNVFSCSVMHEALHNHYTQKSLSLSPGK chain 2: FTVTVPKDLYVVEYGSNMTIECKFPVEKQLDLAALQVYWMMEDKNIIQFVHGEEDLKVQHSSYRQRARLLKDQLSLGNAALQITDVKLQDAGVYTCLIAYKGADYKRITVKVNAPYNKINQRILVVDPVTSEHELTCQAEGYPKAEVIWTSSDHQVLSGKTTTTNSKREEKLFNVTSTLRINTTTNEIFYCTFRRLDPEENHTAELVIPELPLAHPPNERGGGGSGGGDKTHTCPPCPAPEKKGGPSVFLFPPKPKDTLMISRTPEVTCVVVDVSHEDPEVKFNWYVDGVEVHNAKTKPREEQYNSTYRVVSVLTVLHQDWLNGKEYKCKVSNKALPAPIEKTISKAKGQPREPQVYVLPPSREEMTKNQVSLLCLVKGFYPSDIAVEWESNGQPENRYMTWPPVLDSDGSFFLYSKLTVDKSRWQQGNVFSCSVMHEALHNHYTQKSLSLSPGK |
| 2 | 20 | IL-2(R38D/K43E/E61R/Q126T)/PD-L1(mut2)-Fc (Fc fusion) chain 1: FTVTVPKDLYVVEYGSNMTIECKFPVEKQLDLAALQVYWMMEDKNIIQFVHGEEDLKVQHSSYRQRARLLKDQLSLGNAALQITDVKLQDAGVYTCLIAYKGADYKRITVKVNAPYNKINQRILVVDPVTSEHELTCQAEGYPKAEVIWTSSDHQVLSGKTTTTNSKREEKLFNVTSTLRINTTTNEIFYCTFRRLDPEENHTAELVIPELPLAHPPNERGGGGSGGGDKTHTCPPCPAPEDEGGPSVFLFPPKPKDTLMISRTPEVTCVVVDVSHEDPEVKFNWYVDGVEVHNAKTKPREEQYNSTYRVVSVLTVLHQDWLNGKEYKCKVSNKALPAPIEKTISKAKGQPREPQVYVYPPSREEMTKNQVSLTCLVKGFYPSDIAVEWESNGQPENNYKTTPPVLDEDGSFALVSKLTVDKSRWQQGNVFSCSVMHEALHNHYTQKSLSLSPGK chain 2: FTVTVPKDLYVVEYGSNMTIECKFPVEKQLDLAALQVYWMMEDKNIIQFVHGEEDLKVQHSSYRQRARLLKDQLSLGNAALQITDVKLQDAGVYTCLIAYKGADYKRITVKVNAPYNKINQRILVVDPVTSEHELTCQAEGYPKAEVIWTSSDHQVLSGKTTTTNSKREEKLFNVTSTLRINTTTNEIFYCTFRRLDPEENHTAELVIPELPLAHPPNERGGGSGAPTSSSTKKTQLQLEHLLLDLQMILNGINNYKNPKLTDMLTFEFYMPKKATELKHLQCLERELKPLEEVLNLAQSKNFHLRPRDLISNINVIVLELKGSETTFMCEYADETATIVEFLNRWITFCTSIISTLTGGGGSGGGDKTHTCPPCPAPEKKGGPSVFLFPPKPKDTLMISRTPEVTCVVVDVSHEDPEVKFNWYVDGVEVHNAKTKPREEQYNSTYRVVSVLTVLHQDWLNGKEYKCKVSNKALPAPIEKTISKAKGQPREPQVYVLPPSREEMTKNQVSLLCLVKGFYPSDIAVEWESNGQPENRYMTWPPVLDSDGSFFLYSKLTVDKSRWQQGNVFSCSVMHEALHNHYTQKSLSLSPGK |
